Source: article PMC3708844 (2013)

B1: SHI1 fused with the N-terminal portion of the luciferase [Arabidopsis thaliana] / FRY2/CPL1 fused with the C-terminal part of the luciferase [Arabidopsis thaliana] (parent complex)
chain 1: MERSRSKRNYHYDQDYDGDSMPRSKPRYNNNYHFGGGGGGNNRYRGGGGGGGGNGRPSKSHPETMATTTYRILCHDAKAGGVIGKSGTIIKSIRQHTGAWINVHELVPGDAERIIEISDNRRRDPDGRMPSFSPAQEALFSVHDRILESEAQFGYGGPPPEEEEDYGGVRPGGGRVVTRLVVSRMHVGCLLGKGGKIIEQMRIETKTHIRILPRESNLPRCVSLSEEIVQIVGELNAVKNALAIVSSRLRESQHRDRSNFQGRSHSPERSFAAAGDDYMPQLRRQSSDRFPRGNFRNNNFSSRQSNYAEEAPAVPVGENVYSEELVFQILCPADKIVRVVGESQGIIDLLQNEIGVDVRVSDPVAGSDEQIITISSEEAPDDPFFPAQEALLHIQTQIIDLIPDKDNLITTRLLVPSRDSICLEGKAGSVSEISRLTGTSVQILAREEIPRCASINDVVIQITGEIRAAREALVELTLLLRSHMFKELSQKETPPASTSTTGPLEGVAGVMEVASSNNTIQSREGPTSSNLNLQQVSTILPQFKEGFGSVAKAGESEHREEVPVTTSRMAVPLVTRSTLEVVLPEAVVPKLVTKSRNKLAQISEWSGASVTIVEDRPEETQNIIRISGTPEQAERAQSLLQGFILSIQEDGP
chain 2: MYSNNRVEVFHGDGRLGELEIYPSRELNQQQDDVMKQRKKKQREVMELAKMGIRISHFSQSGERCPPLAILTTISSCGLCFKLEASPSPAQESLSLFYSSCLRDNKTAVMLLGGEELHLVAMYSENIKNDRPCFWAFSVAPGIYDSCLVMLNLRCLGIVFDLDETLVVANTMRSFEDKIDGFQRRINNEMDPQRLAVIVAEMKRYQDDKNLLKQYIESDQVVENGEVIKVQSEIVPALSDNHQPLVRPLIRLQEKNIILTRINPMIRDTSVLVRMRPSWEELRSYLTAKGRKRFEVYVCTMAERDYALEMWRLLDPEGNLINTNDLLARIVCVKSGFKKSLFNVFLDGTCHPKMALVIDDRLKVWDEKDQPRVHVVPAFAPYYSPQAEAAATPVLCVARNVACGVRGGFFRDFDDSLLPRIAEISYENDAEDIPSPPDVSHYLVSEDDTSGLNGNKDPLSFDGMADTEVERRLKEAISASSAVLPAANIDPRIAAPVQFPMASASSVSVPVPVQVVQQAIQPSAMAFPSIPFQQPQQPTSIAKHLVPSEPSLQSSPAREEGEVPESELDPDTRRRLLILQHGQDTRDPAPSEPSFPQRPPVQAPPSHVQSRNGWFPVEEEMDPAQIRRAVSKEYPLDSEMIHMEKHRPRHPSFFSKIDNSTQSDRMLHENRRPPKESLRRDEQLRSNNNLPDSHPFYGEDASWNQSSSRNSDLDFLPERSVSATETSADVLHGIAIKCGAKVEYKPSLVSSTDLRFSVEAWLSNQKIGEGIGKSRREALHKAAEASIQNLADGYMRANGDPGPSHRDATPFTNENISMGNANALNNQPFARDETALPVSSRPTDPRLEGSMRHTGSITALRELCASEGLEMAFQSQRQLPSDMVHRDELHAQVEIDGRVVGEGVGSTWDEARMQAAERALSSVRSMLGQPLHKRQGSPRSFGGMSNKRLKPDFQRSLQRMPSSGRYS

Variants of: B1
Experiment: split-luciferase complementation assay; co-expressed in Arabidopsis protoplasts; means ± SE (n = 3); parent: 160; read off a plot

| response [RLU] | Variant |
| --- | --- |
| ~110 | chain 1 E389K |
